Measurements as given in the Immune Epitope Database (IEDB).
One block for each sequence: values may come before it.

Legend:
HLA-B*07:02 = experiment: IEDB peptide-MHC binding, purified MHC/direct/fluorescence; filed as Kd, often an IC50 or EC50 that approximates it; ≥ and ≤ were set here for values at or beyond the usual limits of such assays
HLA-B*35:01 = experiment: IEDB peptide-MHC binding, purified MHC/competitive/fluorescence; filed as Kd, often an IC50 or EC50 that approximates it; ≥ and ≤ were set here for values at or beyond the usual limits of such assays
HLA-B*08:01 [1] = experiment: as above
HLA-A*02:11 = experiment: IEDB peptide-MHC binding, purified MHC/direct/fluorescence; filed as Kd, often an IC50 or EC50 that approximates it; ≥ and ≤ were set here for values at or beyond the usual limits of such assays
HLA-A*68:02 = experiment: as above
HLA-A*02:12 = experiment: as above
HLA-A*02:16 = experiment: as above
HLA-A*24:03 = experiment: as above
HLA-A*03:01 = experiment: as above
HLA-A*02:19 = experiment: as above
HLA-A*29:02 = experiment: as above
HLA-A*02:03 = experiment: as above
HLA-A*23:01 = experiment: as above
HLA-B*15:01 [2] = experiment: IEDB peptide-MHC binding, purified MHC/competitive/fluorescence; filed as Kd, often an IC50 or EC50 that approximates it; ≥ and ≤ were set here for values at or beyond the usual limits of such assays
HLA-B*46:01 = experiment: as above
HLA-B*39:01 = experiment: as above
HLA-B*15:17 = experiment: as above; conditions: source organism: Zaire ebolavirus
HLA-A*26:01 [3] = experiment: as above
HLA-A*31:01 [4] = experiment: as above; conditions: source organism: Zaire ebolavirus
HLA-A*69:01 [5] = experiment: as above
HLA-B*57:01 = experiment: as above
HLA-B*27:03 = experiment: as above
HLA-A*02:01 [6] = experiment: as above
HLA-B*51:01 = experiment: as above
HLA-B*18:01 = experiment: as above
HLA-A*01:01 = experiment: IEDB peptide-MHC binding, purified MHC/direct/fluorescence; filed as Kd, often an IC50 or EC50 that approximates it; ≥ and ≤ were set here for values at or beyond the usual limits of such assays
HLA-B*15:01 [7] = experiment: as above
HLA-B*58:01 = experiment: as above
HLA-B*27:05 = experiment: as above
HLA-A*26:01 [8] = experiment: as above
HLA-A*31:01 [9] = experiment: as above
HLA-A*69:01 [10] = experiment: as above
HLA-A*30:01 = experiment: as above
HLA-A*02:01 [11] = experiment: as above
HLA-B*08:01 [12] = experiment: as above
HLA-B*40:01 = experiment: as above
HLA-A*11:01 = experiment: as above
HLA-B*44:02 = experiment: as above
[13] = source organism: Ravn virus - Ravn, Kenya, 1987
[14] = source organism: Zaire ebolavirus
[15] = source organism: Orthohantavirus sinnombreense
[16] = source organism: Pseudomonas aeruginosa UCBPP-PA14
[17] = source organism: Pseudomonas aeruginosa
[18] = source organism: Campylobacter jejuni
[19] = source organism: Giardia lamblia ATCC 50803
[20] = source organism: Escherichia coli
[21] = source organism: Escherichia coli 536

Sequence: GPGEVSAAM
Kd (HLA-B*07:02; source organism: Mycobacterium tuberculosis str. Haarlem): 0.146 µM
Kd (HLA-B*35:01; source organism: Mycobacterium tuberculosis variant bovis BCG str. Pasteur 1173P2): 0.0039 µM

Kd (HLA-B*08:01 [1]; source organism: Escherichia coli O139:H28 str. E24377A): ≥ 20 µM
Sequence: HPKRTERAG

Sequence: HSGFIYFGK
Kd (HLA-A*02:11; [13]): ≥ 20 µM
Kd (HLA-A*68:02; [13]): ≥ 20 µM
Kd (HLA-A*02:12; [13]): ≥ 20 µM
Kd (HLA-A*02:16; [13]): ≥ 20 µM
Kd (HLA-A*24:03; [13]): ≥ 20 µM
Kd (HLA-A*03:01; source organism: Sudan ebolavirus - Uganda (2000)): 3.47 µM
Kd (HLA-A*02:19; [13]): ≥ 20 µM
Kd (HLA-A*29:02; [13]): ≥ 20 µM
Kd (HLA-A*02:03; [13]): ≥ 20 µM
Kd (HLA-A*23:01; [13]): ≥ 20 µM
Kd (HLA-B*15:01 [2]; [14]): ≥ 20 µM
Kd (HLA-B*46:01; [14]): ≥ 20 µM
Kd (HLA-B*39:01; [14]): ≥ 20 µM
Kd (HLA-B*15:17): ≥ 20 µM
Kd (HLA-A*26:01 [3]; [14]): ≥ 20 µM
Kd (HLA-A*31:01 [4]): 0.797 µM
Kd (HLA-A*69:01 [5]; [14]): ≥ 20 µM
Kd (HLA-B*57:01; [14]): ≥ 20 µM
Kd (HLA-B*27:03; [14]): ≥ 20 µM
Kd (HLA-A*02:01 [6]; [14]): ≥ 20 µM
Kd (HLA-B*51:01; [14]): ≥ 20 µM
Kd (HLA-B*18:01; [14]): ≥ 20 µM

Sequence: HTVGLGQGY
Kd (HLA-A*02:11; source organism: Choclo virus): ≥ 20 µM
Kd (HLA-A*02:12; source organism: Choclo virus): ≥ 20 µM
Kd (HLA-A*02:16; source organism: Choclo virus): ≥ 20 µM
Kd (HLA-A*24:03; source organism: Choclo virus): ≥ 20 µM
Kd (HLA-A*03:01; source organism: Choclo virus): ≥ 20 µM
Kd (HLA-A*01:01; source organism: Orthohantavirus andesense): ≥ 5 µM
Kd (HLA-A*02:19; source organism: Choclo virus): ≥ 20 µM
Kd (HLA-A*02:03; source organism: Choclo virus): ≥ 20 µM
Kd (HLA-A*23:01; source organism: Choclo virus): ≥ 20 µM
Kd (HLA-B*46:01; [15]): ≥ 20 µM
Kd (HLA-B*39:01; [15]): ≥ 20 µM
Kd (HLA-A*26:01 [3]; [15]): 0.0021 µM
Kd (HLA-A*69:01 [5]; [15]): ≥ 20 µM
Kd (HLA-B*57:01; [15]): ≥ 20 µM
Kd (HLA-B*27:03; [15]): ≥ 20 µM
Kd (HLA-A*02:01 [6]; [15]): ≥ 20 µM
Kd (HLA-B*51:01; [15]): ≥ 20 µM
Kd (HLA-B*18:01; [15]): ≥ 20 µM

Sequence: QTEPKTSVV
Kd (HLA-A*02:11; [14]): ≥ 20 µM
Kd (HLA-A*68:02; [14]): ≥ 20 µM
Kd (HLA-A*02:12; [14]): ≥ 20 µM
Kd (HLA-A*24:03; [14]): ≥ 20 µM
Kd (HLA-A*03:01; [14]): ≥ 20 µM
Kd (HLA-A*01:01; source organism: Ebola virus - Eckron (Zaire, 1976)): 16.4 µM
Kd (HLA-A*02:19; [14]): ≥ 20 µM
Kd (HLA-A*29:02; [14]): ≥ 20 µM
Kd (HLA-A*02:03; [14]): ≥ 20 µM
Kd (HLA-A*23:01; [14]): ≥ 20 µM
Kd (HLA-B*15:01 [2]; [14]): ≥ 20 µM
Kd (HLA-B*46:01; [14]): ≥ 20 µM
Kd (HLA-B*39:01; [14]): ≥ 20 µM
Kd (HLA-B*15:17): ≥ 20 µM
Kd (HLA-A*26:01 [3]; [14]): ≥ 20 µM
Kd (HLA-B*57:01; [14]): ≥ 20 µM
Kd (HLA-B*27:03; [14]): ≥ 20 µM
Kd (HLA-A*02:01 [6]; [14]): ≥ 20 µM
Kd (HLA-B*51:01; [14]): ≥ 20 µM
Kd (HLA-B*18:01; [14]): ≥ 20 µM

Kd (HLA-B*15:01 [7]; [16]): ≥ 20 µM
Kd (HLA-B*58:01; [16]): ≥ 20 µM
Kd (HLA-B*27:05; [16]): ≥ 20 µM
Kd (HLA-A*26:01 [8]; [16]): ≥ 20 µM
Kd (HLA-A*24:03; [16]): ≥ 20 µM
Kd (HLA-A*31:01 [9]; [17]): 0.046 µM
Kd (HLA-A*03:01; [17]): 3.44 µM
Kd (HLA-A*69:01 [10]; [16]): ≥ 20 µM
Kd (HLA-A*01:01; [16]): ≥ 20 µM
Kd (HLA-A*30:01; [17]): 2.01 µM
Kd (HLA-A*02:01 [11]; [16]): ≥ 20 µM
Kd (HLA-B*08:01 [12]; [16]): ≥ 20 µM
Kd (HLA-B*40:01; [16]): ≥ 20 µM
Kd (HLA-A*11:01; [17]): 8.65 µM
Kd (HLA-B*07:02; [16]): ≥ 20 µM
Sequence: RDYRTISPR

Sequence: VKKLWGHLP
Kd (HLA-B*15:01 [7]; [18]): ≥ 20 µM
Kd (HLA-B*58:01; [18]): ≥ 20 µM
Kd (HLA-B*27:05; [18]): ≥ 20 µM
Kd (HLA-A*26:01 [8]; [18]): ≥ 20 µM
Kd (HLA-A*24:03; [18]): ≥ 20 µM
Kd (HLA-A*31:01 [9]; [18]): ≥ 20 µM
Kd (HLA-A*03:01; [18]): ≥ 20 µM
Kd (HLA-A*69:01 [10]; [18]): ≥ 20 µM
Kd (HLA-A*01:01; [18]): ≥ 20 µM
Kd (HLA-A*30:01; [18]): ≥ 20 µM
Kd (HLA-A*02:01 [11]; [18]): ≥ 20 µM
Kd (HLA-B*40:01; [18]): ≥ 20 µM
Kd (HLA-A*11:01; [18]): ≥ 20 µM
Kd (HLA-B*44:02; [18]): ≥ 20 µM

Sequence: VYAYPSGEK
Kd (HLA-B*15:01 [7]; [19]): ≥ 20 µM
Kd (HLA-B*58:01; [19]): ≥ 20 µM
Kd (HLA-B*27:05; [19]): ≥ 20 µM
Kd (HLA-A*26:01 [8]; [19]): ≥ 20 µM
Kd (HLA-A*24:03; [19]): ≥ 20 µM
Kd (HLA-A*03:01; [19]): 3.37 µM
Kd (HLA-A*69:01 [10]; [19]): ≥ 20 µM
Kd (HLA-A*01:01; [19]): ≥ 20 µM
Kd (HLA-A*30:01; [19]): 4.7 µM
Kd (HLA-A*02:01 [11]; [19]): ≥ 20 µM
Kd (HLA-B*08:01 [12]; [19]): ≥ 20 µM
Kd (HLA-B*40:01; [19]): ≥ 20 µM
Kd (HLA-A*11:01; [19]): 7.74 µM
Kd (HLA-B*07:02; [19]): ≥ 20 µM
Kd (HLA-B*44:02; [19]): ≥ 20 µM

Kd (HLA-B*15:01 [7]; [20]): ≥ 20 µM
Kd (HLA-B*58:01; [20]): ≥ 20 µM
Kd (HLA-B*27:05; [20]): ≥ 20 µM
Kd (HLA-A*26:01 [8]; [20]): ≥ 20 µM
Kd (HLA-A*24:03; [20]): 13.8 µM
Kd (HLA-A*31:01 [9]; [20]): ≥ 20 µM
Kd (HLA-A*03:01; [20]): ≥ 20 µM
Kd (HLA-A*69:01 [10]; [20]): ≥ 20 µM
Kd (HLA-A*01:01; [20]): ≥ 20 µM
Kd (HLA-A*30:01; [20]): ≥ 20 µM
Kd (HLA-A*02:01 [11]; [20]): ≥ 20 µM
Kd (HLA-B*08:01 [12]; [20]): ≥ 20 µM
Kd (HLA-B*40:01; [20]): ≥ 20 µM
Kd (HLA-A*11:01; [20]): ≥ 20 µM
Kd (HLA-B*07:02; [20]): 4.68 µM
Kd (HLA-B*35:01; source organism: Escherichia coli str. K-12 substr. MG1655): ≥ 5 µM
Sequence: WCRVGRGTI

Kd (HLA-B*15:01 [2]; [21]): ≥ 20 µM
Kd (HLA-A*02:01 [6]; [21]): 0.0146 µM
Kd (HLA-B*08:01 [1]; [21]): 0.0452 µM
Sequence: WLLLRQLPI

Sequence: WSHRVTSPK
Kd (HLA-A*01:01; source organism: Vibrio cholerae): ≥ 20 µM
Kd (HLA-A*30:01; source organism: Vibrio cholerae V52): 0.05 µM
